Reference: PMC10030117 (eLife, 2023)

Molecular target: Authentic MERS spike, full-length unstabilized, on the cell surface (MERS-CoV, strain , UniProt K9N5Q8)
Test: flow cytometry on cells
Conditions: one partner purified

Authentic MERS spike, full-length unstabilized, on the cell surface, sequence (K9N5Q8 18-1353): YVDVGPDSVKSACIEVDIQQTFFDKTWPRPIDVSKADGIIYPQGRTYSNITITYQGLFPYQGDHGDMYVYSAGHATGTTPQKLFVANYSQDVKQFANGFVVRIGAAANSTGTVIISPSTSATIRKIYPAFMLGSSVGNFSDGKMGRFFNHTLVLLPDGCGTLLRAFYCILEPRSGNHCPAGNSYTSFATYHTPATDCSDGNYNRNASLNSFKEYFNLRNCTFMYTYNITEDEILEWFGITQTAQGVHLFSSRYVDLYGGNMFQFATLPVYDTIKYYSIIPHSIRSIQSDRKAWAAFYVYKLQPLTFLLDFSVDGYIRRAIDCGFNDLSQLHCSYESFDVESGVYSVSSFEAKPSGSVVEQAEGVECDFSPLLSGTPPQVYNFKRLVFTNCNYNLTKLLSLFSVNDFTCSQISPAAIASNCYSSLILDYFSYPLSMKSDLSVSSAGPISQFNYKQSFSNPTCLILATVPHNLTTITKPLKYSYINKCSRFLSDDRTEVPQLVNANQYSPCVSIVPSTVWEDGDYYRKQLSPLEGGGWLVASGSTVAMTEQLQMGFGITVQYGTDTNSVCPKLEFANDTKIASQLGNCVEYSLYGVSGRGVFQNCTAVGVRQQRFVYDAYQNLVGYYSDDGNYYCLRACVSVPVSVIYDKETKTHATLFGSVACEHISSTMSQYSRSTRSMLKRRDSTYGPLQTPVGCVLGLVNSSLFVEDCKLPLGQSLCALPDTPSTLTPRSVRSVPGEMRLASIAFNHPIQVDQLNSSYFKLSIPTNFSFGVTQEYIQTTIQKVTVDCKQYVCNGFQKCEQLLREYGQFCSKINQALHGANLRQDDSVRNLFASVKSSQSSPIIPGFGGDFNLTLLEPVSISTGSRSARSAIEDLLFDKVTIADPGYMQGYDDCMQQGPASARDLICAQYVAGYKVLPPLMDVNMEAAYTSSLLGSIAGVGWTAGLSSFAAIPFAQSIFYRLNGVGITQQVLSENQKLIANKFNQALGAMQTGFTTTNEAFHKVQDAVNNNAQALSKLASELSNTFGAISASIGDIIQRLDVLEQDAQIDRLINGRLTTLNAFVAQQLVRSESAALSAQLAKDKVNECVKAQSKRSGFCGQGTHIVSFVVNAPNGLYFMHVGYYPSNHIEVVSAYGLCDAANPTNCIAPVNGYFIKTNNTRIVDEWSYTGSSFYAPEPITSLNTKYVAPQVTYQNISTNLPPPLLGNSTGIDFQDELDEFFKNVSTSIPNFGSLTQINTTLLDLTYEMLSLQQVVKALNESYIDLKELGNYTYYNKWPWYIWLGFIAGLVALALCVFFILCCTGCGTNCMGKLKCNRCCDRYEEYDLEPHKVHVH

B1: Antibody RAY53, full-length human IgG1 (antibody, V domains shown)
VH: QVQLVQSGAVVLKPGASVKLSCKASGFNIKNTYIHWLKQAPGQRLEWIGRIGPAIGNTIYAPKFQGKATITTDTSASTAYLELSSLRSEDTAVYYCARYYGSSYYYLDYWGQGTTVTVSS
VL: DIVMTQSPLSVPVTPGEPVSISCRSSKSLLHSNGNTYLYWFLQKPGQSPQLLIARMSTLASGVPDRFSGSGSGTAFTLKISRVEAEDVGVYYCMQYLEYPLTFGAGTKLEIK
- binding result: binds
